In patent publication US20200181278A1 (MITSUBISHI TANABE PHARMA, published 2020):

T1: mouse CD138 His (mouse, UniProt P18828 23-255, limits assumed)
T1 construct: also called mCD138; not shown: His tag
T1 sequence: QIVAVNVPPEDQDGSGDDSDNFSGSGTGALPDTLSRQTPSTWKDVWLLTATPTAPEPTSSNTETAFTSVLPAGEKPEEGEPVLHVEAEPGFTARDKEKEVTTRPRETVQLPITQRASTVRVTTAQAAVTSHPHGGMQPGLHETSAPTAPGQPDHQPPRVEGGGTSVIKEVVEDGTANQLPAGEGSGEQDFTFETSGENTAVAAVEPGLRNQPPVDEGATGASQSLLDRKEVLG


Molecular target: T1, mouse CD138 His
Experiment: SPR, mouse CD138 His immobilised, antibody as analyte
Experimental: Murine IgGs were purified from the hybridoma supernatants and the IgGs were subject to SPR (surface plasmon resonance) for kinetic binding measurements. […] […] KDs were measured using bivalent analyte fit.

binding result | Binder
no binding | F12P7G11 (antibody, V domains shown, Murine IgG purified from hybridoma supernatant) VH: QVQLQQSGAELARPGASVKLSCKASGYTFSSHWMQWVKQRPGQGLEWIGAIYPGDGDTRFTQKFKGKATLTADKSSNTAYMQLSSLASEDSAVYYCARGIYYDRSRAMDYWGQGTSVTVSS VL: QIVLSQSPAILSASPGEKVTMTCRASSSVNYMHWYQQKPGSSPKHWIYATSYLASGVPARFSGSGSGTSYSLTISRVEAEDAATYYCQQWSSDPLTFGAGTKLELKR
no binding | F11AP11E5 (antibody, V domains shown, Murine IgG purified from hybridoma supernatant) VH: QVQLQQSGAELVKPGASVKLSCKASGYTFTNYYMYWVKQRPGQGLEWIGEINPGNGGTNFNEKFKNKATLTVDKSSSTAYMQLSSLTSEDSAVYYCTTRFAYWGQGTLVIVSA VL: DVVMTQTPLSLSVTIGQPASISCKSGQSLLYSNGKTYLTWLQQRPGQAPKLLMYQVSKLDPGIPDRFSGSGSETDFTLKISRVEAEDLGVYYCLQNTYYPHTFGAGTKLELKR
